In patent publication EP1403367A1, “METHOD OF TESTING DRUG FOR TREATING OR PREVENTING DISEASES SUCH AS HYPERLIPEMIA” (Sankyo Company Limited, priority 2001, dated 2002):

Experiments:
[1] = biological target: lipoprotein lipase (LPL) originated from a rat fat cell (rat) (UniProt Q06000); experiment: cell-based or functional assay
[2] = tested on: rat "angiopoietin-related protein 3" gene; experiment: TaqMan PCR quantification of liver angiopoietin-related protein 3 gene expression after bezafibrate in feed; assay type: in vivo, Zucker fatty rats; conditions: 0.3% in F2 powder feed for seven days, compared to the control group, corrected with 18S ribosome
Source text: (§1) For seven days, the antilipemic bezafibrate (manufactured by Sigma) mixed with F2 powder feed (manufactured by Funabashi Noujou) at 0.3% of concentration was administrated to two Zucker fatty rats (purchased from Nihon Charles River) of age 11 weeks.
To the two rats in the control group only F2 powder feed was given. After collecting blood samples from each of the rats under both conditions, the liver thereof was extracted, put in liquid nitrogen immediately to be frozen rapidly, and kept at -80 °C. 5 ml of TRIzol reagent (manufactured by Gibco BRL) were added to 0.1 g of the liver tissue obtained, and it was homogenized on ice using an ultra high-speed homogenizer (Polytoron, manufactured by ckinematica) (at dial 10 for 2 minutes). After incubation for 5 minutes at a room temperature, 1 ml of chloroform was added and mixed vigorously for 15 seconds. […]
A single stranded cDNA was produced according to the following procedures. […] After completion of the reaction, 29 µl of ribonuclease-free purified water was added to each of the samples, and diluted with ribonuclease-free purified water a further 5 times for use in the following quantification. The single-stranded cDNA solution for creation of a calibration-curve was prepared by producing a 5-times serial dilution with ribonuclease-free purified water from the solution for quantification derived from one control sample. […]

[3] = Concentration of neutral fat in blood after bezafibrate in feed; assay type: in vivo, Zucker fatty rats; conditions: 0.3% in F2 powder feed for seven days; compared to the control group
Source text: as §1
To the two rats in the control group only F2 powder feed was given. After collecting blood samples from each of the rats under both conditions, the liver thereof was extracted, put in liquid nitrogen immediately to be frozen rapidly, and kept at -80 °C. 5 ml of TRIzol reagent (manufactured by Gibco BRL) were added to 0.1 g of the liver tissue obtained, and it was homogenized on ice using an ultra high-speed homogenizer (Polytoron, manufactured by ckinematica) (at dial 10 for 2 minutes). After incubation for 5 minutes at a room temperature, 1 ml of chloroform was added and mixed vigorously for 15 seconds.

[4] = biological target: hepatic triacylglycerol lipase (HTGL) in mouse plasma after administering heparin intravenously (mouse) (UniProt P27656); experiment: cell-based or functional assay
Sequence of UniProt P27656 (P27656 22-510 limits assumed): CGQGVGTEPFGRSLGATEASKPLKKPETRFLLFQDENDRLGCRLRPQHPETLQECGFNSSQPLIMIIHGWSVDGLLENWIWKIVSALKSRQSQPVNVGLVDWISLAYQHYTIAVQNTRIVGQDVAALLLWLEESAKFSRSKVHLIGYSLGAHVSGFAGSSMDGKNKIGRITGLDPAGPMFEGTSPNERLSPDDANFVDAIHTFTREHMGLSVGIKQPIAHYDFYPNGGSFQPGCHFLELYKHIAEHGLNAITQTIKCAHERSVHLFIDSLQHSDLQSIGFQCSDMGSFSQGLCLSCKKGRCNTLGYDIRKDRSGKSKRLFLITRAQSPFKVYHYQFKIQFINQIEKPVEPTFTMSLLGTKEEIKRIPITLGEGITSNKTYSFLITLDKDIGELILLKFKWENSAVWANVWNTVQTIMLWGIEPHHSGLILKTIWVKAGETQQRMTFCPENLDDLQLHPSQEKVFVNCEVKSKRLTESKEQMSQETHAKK

[5] = biological target: lipoprotein lipase (LPL) in mouse plasma after administering heparin intravenously (mouse) (UniProt P11152); experiment: cell-based or functional assay
Sequence of UniProt P11152 (P11152 28-474 limits assumed): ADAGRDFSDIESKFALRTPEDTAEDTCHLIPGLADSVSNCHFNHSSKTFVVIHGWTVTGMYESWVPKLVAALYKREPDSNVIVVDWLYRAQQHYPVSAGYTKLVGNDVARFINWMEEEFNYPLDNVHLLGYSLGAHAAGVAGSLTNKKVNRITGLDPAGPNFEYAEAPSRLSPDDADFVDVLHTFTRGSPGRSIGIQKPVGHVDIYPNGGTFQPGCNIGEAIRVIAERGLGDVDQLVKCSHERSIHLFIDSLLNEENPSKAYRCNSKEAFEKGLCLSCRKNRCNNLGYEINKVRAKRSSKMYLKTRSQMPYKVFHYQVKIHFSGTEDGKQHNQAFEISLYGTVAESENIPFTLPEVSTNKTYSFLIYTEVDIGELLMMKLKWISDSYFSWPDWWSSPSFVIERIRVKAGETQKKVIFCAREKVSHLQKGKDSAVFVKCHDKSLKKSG

Sequence of UniProt Q06000 (Q06000 28-474 limits assumed): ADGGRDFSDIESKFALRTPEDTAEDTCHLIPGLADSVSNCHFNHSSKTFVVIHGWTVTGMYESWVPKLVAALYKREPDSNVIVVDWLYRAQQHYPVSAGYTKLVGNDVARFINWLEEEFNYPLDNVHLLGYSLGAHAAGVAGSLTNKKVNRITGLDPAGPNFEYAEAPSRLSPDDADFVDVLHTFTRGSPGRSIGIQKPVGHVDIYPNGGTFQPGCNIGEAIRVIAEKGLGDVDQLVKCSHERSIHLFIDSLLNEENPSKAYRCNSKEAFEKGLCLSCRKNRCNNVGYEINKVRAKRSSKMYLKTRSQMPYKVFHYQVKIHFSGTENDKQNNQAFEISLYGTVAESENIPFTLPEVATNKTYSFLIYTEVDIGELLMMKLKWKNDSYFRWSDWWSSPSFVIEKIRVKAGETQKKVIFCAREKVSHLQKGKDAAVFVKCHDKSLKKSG

With “KhAP5 CC/His (N terminal 207 amino acid partial protein of angiopoietin-related protein 3 with a histidine tag inserted after residue 20) (ligand)” as the molecule, how does the relative value of LPL activity (%) at 0 µg/ml KhAP5 CC/His [1] read?
Its relative value of LPL activity (%) at 0 µg/ml KhAP5 CC/His is 100%.

What about the relative value of LPL activity (%) at 1 µg/ml KhAP5 CC/His [1] of the same molecule?
Its relative value of LPL activity (%) at 1 µg/ml KhAP5 CC/His is 27%.

What about the relative value of LPL activity (%) at 2.5 µg/ml KhAP5 CC/His [1] of the same molecule?
The relative value of LPL activity (%) at 2.5 µg/ml KhAP5 CC/His was 21%.

What about the relative value of LPL activity (%) at 5 µg/ml KhAP5 CC/His [1] of the same molecule?
Its relative value of LPL activity (%) at 5 µg/ml KhAP5 CC/His is 14%.

What about the relative value of LPL activity (%) at 10 µg/ml KhAP5 CC/His [1] of the same molecule?
Its relative value of LPL activity (%) at 10 µg/ml KhAP5 CC/His is 11%.

With “GST-ARP4N (glutathione-S-transferase connected to the amino terminus of amino acid numbers 26-143 of SEQ ID No. 16, angiopoietin related protein 4) (from UniProt P08515 1-218)” as the molecule, how does the LPL activity (%) at 1 µg/ml GST-ARP4N (GST 10 µg/ml = 100 %) [1] read?
The LPL activity (%) at 1 µg/ml GST-ARP4N (GST 10 µg/ml = 100 %) was 74%.

What about the LPL activity (%) at 2.5 µg/ml GST-ARP4N (GST 10 µg/ml = 100 %) [1] of the same molecule?
The LPL activity (%) at 2.5 µg/ml GST-ARP4N (GST 10 µg/ml = 100 %) was 61%.

And the LPL activity (%) at 5 µg/ml GST-ARP4N (GST 10 µg/ml = 100 %) [1]?
The LPL activity (%) at 5 µg/ml GST-ARP4N (GST 10 µg/ml = 100 %) was 34%.

What about the LPL activity (%) at 10 µg/ml GST-ARP4N (GST 10 µg/ml = 100 %) [1] of the same molecule?
Its LPL activity (%) at 10 µg/ml GST-ARP4N (GST 10 µg/ml = 100 %) is 16%.

Which results are given for `CC(C)(Oc1ccc(CCNC(=O)c2ccc(Cl)cc2)cc1)C(=O)O` [bezafibrate]?
level of expression of a rat "angiopoietin-related protein 3" gene decreased [2]: 73%; concentration of neutral fat in blood reduced [3]: 50%

Which relative value of LPL activity (%) at 1 µg/ml GST-ARP4Full (GST 10 µg/ml = 100 %) [1] does the source give for “GST-ARP4Full (glutathione-S-transferase connected to the amino terminus of amino acid numbers 26-406 of SEQ ID No. 16, angiopoietin related protein 4) (from UniProt P08515 1-218)” here?
Its relative value of LPL activity (%) at 1 µg/ml GST-ARP4Full (GST 10 µg/ml = 100 %) is 67%.

What about the relative value of LPL activity (%) at 2.5 µg/ml GST-ARP4Full (GST 10 µg/ml = 100 %) [1] of the same molecule?
The relative value of LPL activity (%) at 2.5 µg/ml GST-ARP4Full (GST 10 µg/ml = 100 %) was 30%.

What about the relative value of LPL activity (%) at 5 µg/ml GST-ARP4Full (GST 10 µg/ml = 100 %) [1] of the same molecule?
The relative value of LPL activity (%) at 5 µg/ml GST-ARP4Full (GST 10 µg/ml = 100 %) was 16%.

What about the relative value of LPL activity (%) at 10 µg/ml GST-ARP4Full (GST 10 µg/ml = 100 %) [1] of the same molecule?
The relative value of LPL activity (%) at 10 µg/ml GST-ARP4Full (GST 10 µg/ml = 100 %) was 5%.

With “human angiopoietin-related protein 3 (polypeptide consisting of amino acid numbers 17-460 of SEQ ID No. 4) (ligand)” as the molecule, how does the relative value of HTGL activity (%) at 0 µg/ml polypeptide [4] read?
The relative value of HTGL activity (%) at 0 µg/ml polypeptide was 100%.

What about the relative value of HTGL activity (%) at 1 µg/ml polypeptide [4] of the same molecule?
The relative value of HTGL activity (%) at 1 µg/ml polypeptide was 109%.

And the relative value of HTGL activity (%) at 2.5 µg/ml polypeptide [4]?
Its relative value of HTGL activity (%) at 2.5 µg/ml polypeptide is 94%.

What about the relative value of HTGL activity (%) at 5 µg/ml polypeptide [4] of the same molecule?
Its relative value of HTGL activity (%) at 5 µg/ml polypeptide is 80%.

What about the relative value of HTGL activity (%) at 10 µg/ml polypeptide [4] of the same molecule?
The relative value of HTGL activity (%) at 10 µg/ml polypeptide was 64%.

What about the relative value of LPL activity (%) at 0 µg/ml polypeptide [5] of the same molecule?
Its relative value of LPL activity (%) at 0 µg/ml polypeptide is 100%.

And the relative value of LPL activity (%) at 1 µg/ml polypeptide [5]?
The relative value of LPL activity (%) at 1 µg/ml polypeptide was 93%.

And the relative value of LPL activity (%) at 2.5 µg/ml polypeptide [5]?
The relative value of LPL activity (%) at 2.5 µg/ml polypeptide was 82%.

What about the relative value of LPL activity (%) at 5 µg/ml polypeptide [5] of the same molecule?
Its relative value of LPL activity (%) at 5 µg/ml polypeptide is 70%.

What about the relative value of LPL activity (%) at 10 µg/ml polypeptide [5] of the same molecule?
Its relative value of LPL activity (%) at 10 µg/ml polypeptide is 49%.

And the relative value of LPL activity (%) at 0 µg/ml polypeptide [1]?
The relative value of LPL activity (%) at 0 µg/ml polypeptide was 100%.

And the relative value of LPL activity (%) at 1 µg/ml polypeptide [1]?
The relative value of LPL activity (%) at 1 µg/ml polypeptide was 84%.

And the relative value of LPL activity (%) at 2.5 µg/ml polypeptide [1]?
The relative value of LPL activity (%) at 2.5 µg/ml polypeptide was 64%.

What about the relative value of LPL activity (%) at 5 µg/ml polypeptide [1] of the same molecule?
Its relative value of LPL activity (%) at 5 µg/ml polypeptide is 52%.

And the relative value of LPL activity (%) at 10 µg/ml polypeptide [1]?
Its relative value of LPL activity (%) at 10 µg/ml polypeptide is 29%.
